Results from IntAct's records for PubMed 24880343.

Target: pan3_drome PAN3 (UniProt Q95RR8)
Sequence (Q95RR8 whole entry): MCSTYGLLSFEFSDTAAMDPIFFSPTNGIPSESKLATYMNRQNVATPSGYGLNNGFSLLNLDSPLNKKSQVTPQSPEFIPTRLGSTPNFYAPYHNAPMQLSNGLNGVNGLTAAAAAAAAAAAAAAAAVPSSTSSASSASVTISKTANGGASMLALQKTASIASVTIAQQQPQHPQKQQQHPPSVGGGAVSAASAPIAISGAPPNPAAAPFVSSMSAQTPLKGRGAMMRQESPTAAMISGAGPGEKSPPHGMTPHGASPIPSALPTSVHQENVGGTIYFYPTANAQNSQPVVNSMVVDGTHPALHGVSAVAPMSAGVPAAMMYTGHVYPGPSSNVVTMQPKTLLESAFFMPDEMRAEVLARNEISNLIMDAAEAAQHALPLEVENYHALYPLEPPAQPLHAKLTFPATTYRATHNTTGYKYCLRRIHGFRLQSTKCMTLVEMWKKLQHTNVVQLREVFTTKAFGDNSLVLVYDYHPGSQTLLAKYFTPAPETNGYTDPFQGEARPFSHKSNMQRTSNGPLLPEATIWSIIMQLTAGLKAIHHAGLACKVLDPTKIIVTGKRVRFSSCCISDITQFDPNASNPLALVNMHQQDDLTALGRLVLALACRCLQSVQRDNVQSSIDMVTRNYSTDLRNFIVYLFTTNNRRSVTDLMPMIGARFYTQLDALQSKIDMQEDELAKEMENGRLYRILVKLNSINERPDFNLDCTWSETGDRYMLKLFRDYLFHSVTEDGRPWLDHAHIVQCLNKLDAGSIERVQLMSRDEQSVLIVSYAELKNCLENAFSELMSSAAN

Sequence of PAN2-PAN3 deadenylation complex catalytic subunit PAN2 (Drosophila melanogaster (Fruit fly)), A1Z7K9 T97R;H102G (A1Z7K9 whole entry T97R/H102G, one chain of several): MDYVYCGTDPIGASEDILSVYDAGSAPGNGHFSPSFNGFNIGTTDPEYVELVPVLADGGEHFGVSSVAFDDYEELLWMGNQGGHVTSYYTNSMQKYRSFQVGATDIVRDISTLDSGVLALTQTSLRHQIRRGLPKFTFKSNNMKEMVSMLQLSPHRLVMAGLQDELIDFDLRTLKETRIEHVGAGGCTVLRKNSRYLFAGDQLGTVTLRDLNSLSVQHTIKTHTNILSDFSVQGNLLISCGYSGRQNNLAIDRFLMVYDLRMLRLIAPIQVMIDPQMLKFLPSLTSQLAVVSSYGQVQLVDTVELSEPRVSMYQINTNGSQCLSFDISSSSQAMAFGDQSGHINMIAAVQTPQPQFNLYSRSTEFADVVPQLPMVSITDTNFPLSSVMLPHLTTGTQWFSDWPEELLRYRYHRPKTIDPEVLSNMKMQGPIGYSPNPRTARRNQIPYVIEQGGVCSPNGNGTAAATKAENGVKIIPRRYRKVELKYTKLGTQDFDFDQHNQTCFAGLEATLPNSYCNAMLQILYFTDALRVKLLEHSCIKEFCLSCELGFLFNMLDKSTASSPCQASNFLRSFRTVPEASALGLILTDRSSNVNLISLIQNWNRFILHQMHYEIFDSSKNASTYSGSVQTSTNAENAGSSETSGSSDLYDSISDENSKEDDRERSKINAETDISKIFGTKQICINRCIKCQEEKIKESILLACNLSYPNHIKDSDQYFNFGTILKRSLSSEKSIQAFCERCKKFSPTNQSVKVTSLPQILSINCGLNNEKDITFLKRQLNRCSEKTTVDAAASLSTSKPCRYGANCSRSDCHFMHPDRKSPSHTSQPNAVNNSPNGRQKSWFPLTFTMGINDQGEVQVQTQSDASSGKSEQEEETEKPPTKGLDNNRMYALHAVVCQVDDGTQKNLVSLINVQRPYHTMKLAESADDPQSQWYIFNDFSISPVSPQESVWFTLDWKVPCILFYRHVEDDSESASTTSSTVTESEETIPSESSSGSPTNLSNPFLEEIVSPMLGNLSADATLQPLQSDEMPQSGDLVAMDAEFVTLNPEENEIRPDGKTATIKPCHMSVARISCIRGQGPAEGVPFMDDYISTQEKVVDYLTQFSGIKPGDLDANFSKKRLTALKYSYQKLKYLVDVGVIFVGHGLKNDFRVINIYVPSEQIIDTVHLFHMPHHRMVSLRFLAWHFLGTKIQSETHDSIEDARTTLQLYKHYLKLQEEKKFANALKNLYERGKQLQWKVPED

PAN2-PAN3 deadenylation complex catalytic subunit PAN2 (Drosophila melanogaster (Fruit fly)), A1Z7K9 T97R;H102G
effect of a mutation on the interaction: disrupting interaction strength
